Like-named read-outs stand apart in the source and are kept apart here.

Data on six substances can be found in patent US20120076780A1.

Test [1] addresses ErbB-1 (EGFR) on human cancer cells (SCC-1, SCC-9, C1-1 clone 3, C1-1 clone 7) (human) (UniProt P00533). The test is described as follows: cell-based or functional assay.
Test [2] shares this target. Put plainly: cell-based or functional assay. This is another data set of the same source.
Test [3] has the same target. The test is described as follows: cell-based or functional assay. The source holds these as a separate data set.
Test [4] deals with ErbB2 on human tumor cells (SKBR3, A431, T47D, MCF7, MDA-MB231) (human) (UniProt P04626). Put plainly: cell-based or functional assay.
Test [5] shares this target. The test is described as follows: whole-cell ELISA on SKBR3 cells, anti-PE detection, after 24 h at 37 C in 100% human serum. (An ELISA detects its analyte on a solid surface through an enzyme-linked reagent.)
Test [6] concerns the target MUC1 on cells (T47D, MCF7, DA3-MUC1) (human) (UniProt P15941). The test is described as follows: whole-cell ELISA on T47D cells; apparent affinity from the half-maximal binding signal.
Test [7] deals with MUC1, secreted isoform from conditioned medium of MUC1-transfected DA3 cells (UniProt P15941). Put plainly: ELISA on coated MUC1 conditioned medium; apparent affinity from the half-maximal binding signal.

Take “cetuximab-ZZ-PE38 complex (non-cross linked)”: in test [1], the IC50, cell survival, XTT assay, SCC-1 cells was 0.47 ng/mL and the percent of SCC-1 cells killed at 0.001 µg/ml of immunotoxin complex is 80%. For the same substance, in test [2], the IC50, cell survival, XTT assay, C1-1 prostate cancer cells clone 3 was found to be 12 ng/mL; the IC50, cell survival, XTT assay, C1-1 prostate cancer cells clone 7 stood at 38 ng/mL; the IC50, cell survival, XTT assay, SCC-1 cells was found to be 0.261 ng/mL; the IC50, cell survival, XTT assay, SCC-9 cells worked out at 0.073 ng/mL. This substance returned an IC50, cell survival, XTT assay, SCC-1 cells in test [3] of 0.31 ng/mL.

In test [4], “chFRP5-ZZ-PE38 immunoconjugate (from UniProt P01857 1-330)” came in with an IC50 (ng/ml), cell killing, MTT assay 48 h, MCF7 cells of 600 ng/mL; an IC50 (ng/ml), cell killing, MTT assay 48 h, MDA-MB231 cells of more than 10000 ng/mL; an IC50 (ng/ml), cell killing, MTT assay 48 h, T47D cells of 1000 ng/mL; an IC50 (pM), cell killing, MTT assay, A431 cells of 10 pM. For the same substance, the IC50 (pM), cell killing, MTT assay, MCF7 cells in test [4] is 300 pM. For the same substance, the decrease of binding activity in test [5] worked out at 17%.

As for “chimeric H23 IgG1 (from UniProt P01857 1-330) (antibody)”, the Kd in test [6] and in test [7] was 0.3 nM in each case.

As for “cross-linked cetuximab-ZZ-PE38 immunotoxin complex”, in test [3], the IC50, cell survival, XTT assay, SCC-1 cells was found to be 7.54 ng/mL.

For murine H23 mAb (antibody), the results for the Kd in test [6] and in test [7] were 0.25 nM and 0.2 nM, respectively.

In test [4], scFv(FRP5)-ETA displayed an IC50 (pM), cell killing, MTT assay, A431 cells of 52 pM.
